Assay results: article PMC9352680, “A comprehensive thermodynamic model for RNA binding by the Saccharomyces cerevisiae Pumilio protein PUF4”

T1: PUF4 RNA-binding domain (Saccharomyces cerevisiae, UniProt P25339 537-888)
T1 sequence: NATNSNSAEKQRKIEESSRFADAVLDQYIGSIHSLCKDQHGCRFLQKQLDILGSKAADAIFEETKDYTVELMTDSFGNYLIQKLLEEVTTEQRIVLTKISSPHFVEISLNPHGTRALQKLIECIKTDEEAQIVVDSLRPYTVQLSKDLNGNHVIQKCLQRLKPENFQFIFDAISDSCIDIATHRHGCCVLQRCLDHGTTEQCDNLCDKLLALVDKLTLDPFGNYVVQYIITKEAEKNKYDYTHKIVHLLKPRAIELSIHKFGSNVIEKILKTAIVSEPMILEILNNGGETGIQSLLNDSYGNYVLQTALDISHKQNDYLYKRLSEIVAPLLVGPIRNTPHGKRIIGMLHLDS

B1: Ie_S4_P3E.2_K3.1_C3.2_H3.1_A3.1_F3.1_[+8CCCTT]_T3.2 (ssRNA)
RNA: UUUGACAACUGAUCGUUCUUUCUCUUGUAUAUACCCUUUAUUCUUUCUCGAUCAGUUGUCUUU
B2: Ie_S4_P4E.1_K4.1_C4.1_H4.1_[+2C]_A4.1_F4.1_T4.1 (ssRNA)
RNA: UUUGACAACUGAUCGUUCUUUCUUGCUAUAUUAUUCUUUCUCGAUCAGUUGUCUUU
B3: Ie_S4_P4E.1_K4.1_C4.1_H4.1_[+4T]_A4.1_F4.1_T4.1 (ssRNA)
RNA: UUUGACAACUGAUCGUUCUUUCUUGUAUUAUUAUUCUUUCUCGAUCAGUUGUCUUU
B4: Ie_S4_P4E.1_K4.1_C4.1_H4.1_[+1CCCT]_A4.1_F4.1_T4.1 (ssRNA)
RNA: UUUGACAACUGAUCGUUCUUUCUUCCCUGUAUAUUAUUCUUUCUCGAUCAGUUGUCUUU
B5: Ie_S4_P4E.1_K4.1_C4.1_H4.1_[+2CCTC]_A4.1_F4.1_T4.1 (ssRNA)
RNA: UUUGACAACUGAUCGUUCUUUCUUGCCUCUAUAUUAUUCUUUCUCGAUCAGUUGUCUUU
B6: Ie_S4_P4E.1_K4.1_C4.1_H4.1_[+3CCTC]_A4.1_F4.1_T4.1 (ssRNA)
RNA: UUUGACAACUGAUCGUUCUUUCUUGUCCUCAUAUUAUUCUUUCUCGAUCAGUUGUCUUU
B7: Ie_S4_P4E.1_K4.1_C4.1_H4.1_[+2TTCC]_A4.1_F4.1_T4.1 (ssRNA)
RNA: UUUGACAACUGAUCGUUCUUUCUUGUUCCUAUAUUAUUCUUUCUCGAUCAGUUGUCUUU
B8: Ie_S4_P4E.1_K4.1_C4.1_H4.1_[+4TCTC]_A4.1_F4.1_T4.1 (ssRNA)
RNA: UUUGACAACUGAUCGUUCUUUCUUGUAUCUCUAUUAUUCUUUCUCGAUCAGUUGUCUUU
B9: Ie_S4_P3E.2_K3.1_C3.2_H3.1_A3.1_[+6C]_F3.1_T3.2 (ssRNA)
RNA: UUUGACAACUGAUCGUUCUUUCUCUUGUAUACUAUAUUCUUUCUCGAUCAGUUGUCUUU
B10: Ie_S4_P3E.2_K3.1_C3.2_H3.1_A3.1_F3.1_[+8T]_T3.2 (ssRNA)
RNA: UUUGACAACUGAUCGUUCUUUCUCUUGUAUAUAUUAUUCUUUCUCGAUCAGUUGUCUUU
B11: Ie_S4_P3E.2_K3.1_C3.2_H3.1_A3.1_F3.1_[+7C]_T3.2 (ssRNA)
RNA: UUUGACAACUGAUCGUUCUUUCUCUUGUAUAUCAUAUUCUUUCUCGAUCAGUUGUCUUU
B12: Ie_S4_P4E.1_K4.1_C4.1_H4.1_[+1CTCT]_A4.1_F4.1_T4.1 (ssRNA)
RNA: UUUGACAACUGAUCGUUCUUUCUUCUCUGUAUAUUAUUCUUUCUCGAUCAGUUGUCUUU
B13: Ie_S4_P3E.2_K3.1_C3.2_H3.1_A3.1_[+6TC]_F3.1_T3.2 (ssRNA)
RNA: UUUGACAACUGAUCGUUCUUUCUCUUGUAUAUCUAUAUUCUUUCUCGAUCAGUUGUCUUU
B14: Ie_S4_P3E.2_K3.1_C3.2_H3.1_A3.1_F3.1_[+8CC]_T3.2 (ssRNA)
RNA: UUUGACAACUGAUCGUUCUUUCUCUUGUAUAUACCUAUUCUUUCUCGAUCAGUUGUCUUU
B15: Ie_S4_P4E.1_K4.1_C4.1_H4.1_[+1CT]_A4.1_F4.1_T4.1 (ssRNA)
RNA: UUUGACAACUGAUCGUUCUUUCUUCUGUAUAUUAUUCUUUCUCGAUCAGUUGUCUUU
B16: Ie_S4_P4E.1_K4.1_C4.1_H4.1_[+2TT]_A4.1_F4.1_T4.1 (ssRNA)
RNA: UUUGACAACUGAUCGUUCUUUCUUGUUUAUAUUAUUCUUUCUCGAUCAGUUGUCUUU
B17: Ie_S4_P4E.1_K4.1_C4.1_H4.1_[+4CT]_A4.1_F4.1_T4.1 (ssRNA)
RNA: UUUGACAACUGAUCGUUCUUUCUUGUACUUAUUAUUCUUUCUCGAUCAGUUGUCUUU
B18: Ie_S4_P4E.1_K4.1_C4.1_H4.1_[+3CT]_A4.1_F4.1_T4.1 (ssRNA)
RNA: UUUGACAACUGAUCGUUCUUUCUUGUCUAUAUUAUUCUUUCUCGAUCAGUUGUCUUU
B19: Ie_S4_P4E.1_K4.1_C4.1_H4.1_[+4TC]_A4.1_F4.1_T4.1 (ssRNA)
RNA: UUUGACAACUGAUCGUUCUUUCUUGUAUCUAUUAUUCUUUCUCGAUCAGUUGUCUUU
B20: Ie_S4_P4E.1_K4.1_C4.1_H4.1_[+1CTCTC]_A4.1_F4.1_T4.1 (ssRNA)
RNA: UUUGACAACUGAUCGUUCUUUCUUCUCUCGUAUAUUAUUCUUUCUCGAUCAGUUGUCUUU
B21: Ie_S4_P4E.1_K4.1_C4.1_H4.1_[+2CCTCT]_A4.1_F4.1_T4.1 (ssRNA)
RNA: UUUGACAACUGAUCGUUCUUUCUUGCCUCUUAUAUUAUUCUUUCUCGAUCAGUUGUCUUU
B22: Ie_S4_P4E.1_K4.1_C4.1_H4.1_[+3CCCTT]_A4.1_F4.1_T4.1 (ssRNA)
RNA: UUUGACAACUGAUCGUUCUUUCUUGUCCCUUAUAUUAUUCUUUCUCGAUCAGUUGUCUUU
B23: Ie_S4_P4E.1_K4.1_C4.1_H4.1_[+4CTCTC]_A4.1_F4.1_T4.1 (ssRNA)
RNA: UUUGACAACUGAUCGUUCUUUCUUGUACUCUCUAUUAUUCUUUCUCGAUCAGUUGUCUUU
B24: Ie_S4_P4E.1_K4.1_C4.1_H4.1_[+3TTCCT]_A4.1_F4.1_T4.1 (ssRNA)
RNA: UUUGACAACUGAUCGUUCUUUCUUGUUUCCUAUAUUAUUCUUUCUCGAUCAGUUGUCUUU
B25: Ie_S4_P4E.1_K4.1_C4.1_H4.1_[+1CTC]_A4.1_F4.1_T4.1 (ssRNA)
RNA: UUUGACAACUGAUCGUUCUUUCUUCUCGUAUAUUAUUCUUUCUCGAUCAGUUGUCUUU
B26: Ie_S4_P4E.1_K4.1_C4.1_H4.1_[+1TCC]_A4.1_F4.1_T4.1 (ssRNA)
RNA: UUUGACAACUGAUCGUUCUUUCUUUCCGUAUAUUAUUCUUUCUCGAUCAGUUGUCUUU
B27: Ie_S4_P4E.1_K4.1_C4.1_H4.1_[+3TCT]_A4.1_F4.1_T4.1 (ssRNA)
RNA: UUUGACAACUGAUCGUUCUUUCUUGUUCUAUAUUAUUCUUUCUCGAUCAGUUGUCUUU
B28: Ie_S4_P4E.1_K4.1_C4.1_H4.1_[+4CTC]_A4.1_F4.1_T4.1 (ssRNA)
RNA: UUUGACAACUGAUCGUUCUUUCUUGUACUCUAUUAUUCUUUCUCGAUCAGUUGUCUUU
B29: Ie_S4_P4E.1_K4.1_C4.1_H4.1_[+1TTT]_A4.1_F4.1_T4.1 (ssRNA)
RNA: UUUGACAACUGAUCGUUCUUUCUUUUUGUAUAUUAUUCUUUCUCGAUCAGUUGUCUUU
B30: Ie_S4_P4E.1_K4.1_C4.1_H4.1_[+2CTC]_A4.1_F4.1_T4.1 (ssRNA)
RNA: UUUGACAACUGAUCGUUCUUUCUUGCUCUAUAUUAUUCUUUCUCGAUCAGUUGUCUUU
B31: Ie_S4_P4E.1_K4.1_C4.1_H4.1_[+3TCC]_A4.1_F4.1_T4.1 (ssRNA)
RNA: UUUGACAACUGAUCGUUCUUUCUUGUUCCAUAUUAUUCUUUCUCGAUCAGUUGUCUUU
B32: Ie_S4_P5E.1_K5.1_C5.1_H5.1_A5.1_[+6CT]_F5.1_T5.1 (ssRNA)
RNA: UUUGACAACUGAUCGUUCUUUCUUGUAUUCUAUUAUUCUUUCUCGAUCAGUUGUCUUU
B33: Ie_S4_P4E.1_K4.1_C4.1_H4.1_[+3TTT]_A4.1_F4.1_T4.1 (ssRNA)
RNA: UUUGACAACUGAUCGUUCUUUCUUGUUUUAUAUUAUUCUUUCUCGAUCAGUUGUCUUU
B34: Ie_S4_P4E.1_K4.1_C4.1_H4.1_[+3CCC]_A4.1_F4.1_T4.1 (ssRNA)
RNA: UUUGACAACUGAUCGUUCUUUCUUGUCCCAUAUUAUUCUUUCUCGAUCAGUUGUCUUU
B35: Ie_S4_P4E.1_K4.1_C4.1_H4.1_A4.1_[+5TTT]_F4.1_T4.1 (ssRNA)
RNA: UUUGACAACUGAUCGUUCUUUCUUGUAUUUUAUUAUUCUUUCUCGAUCAGUUGUCUUU
B36: Ie_S4_P5E.1_K5.1_C5.1_H5.1_A5.1_[+5CC]_F5.1_T5.1 (ssRNA)
RNA: UUUGACAACUGAUCGUUCUUUCUUGUAUCCUAUUAUUCUUUCUCGAUCAGUUGUCUUU
B37: Ie_S4_P4E.1_K4.1_C4.1_H4.1_[+2TCC]_A4.1_F4.1_T4.1 (ssRNA)
RNA: UUUGACAACUGAUCGUUCUUUCUUGUCCUAUAUUAUUCUUUCUCGAUCAGUUGUCUUU
B38: Ib_S2_P3E.1_K3.1_C3.1_H3.1_[G2A]_A3.1_[T5A]_F3.1_T3.1 (ssRNA)
RNA: UUUGAUUAAUAUGAUAUCGUUCUUUCUUAUAAAUAUUCUUUCUCGAUAUCAUAUUAAUCUUU
B39: Ib_S2_P3E.1_K3.1_C3.1_H3.1_[G2T]_A3.1_[A6G]_F3.1_T3.1 (ssRNA)
RNA: UUUGAUUAAUAUGAUAUCGUUCUUUCUUUUAUGUAUUCUUUCUCGAUAUCAUAUUAAUCUUU
B40: Ib_S2_P3E.1_K3.1_C3.1_H3.1_[G2C]_A3.1_[A6C]_F3.1_T3.1 (ssRNA)
RNA: UUUGAUUAAUAUGAUAUCGUUCUUUCUUCUAUCUAUUCUUUCUCGAUAUCAUAUUAAUCUUU
B41: Ib_S2_P3E.1_K3.1_C3.1_H3.1_[G2C]_A3.1_[A6G]_F3.1_T3.1 (ssRNA)
RNA: UUUGAUUAAUAUGAUAUCGUUCUUUCUUCUAUGUAUUCUUUCUCGAUAUCAUAUUAAUCUUU
B42: Ie_S4_P3E.2_K3.1_C3.2_H3.1_[+4CCC]_A3.1_F3.1_T3.2 (ssRNA)
RNA: UUUGACAACUGAUCGUUCUUUCUCUUGUACCCUAUAUAUUCUUUCUCGAUCAGUUGUCUUU
B43: Ie_S4_P3E.2_K3.1_C3.2_H3.1_[+4CTC]_A3.1_F3.1_T3.2 (ssRNA)
RNA: UUUGACAACUGAUCGUUCUUUCUCUUGUACUCUAUAUAUUCUUUCUCGAUCAGUUGUCUUU
B44: Ie_S4_P3E.2_K3.1_C3.2_H3.1_[+4CCT]_A3.1_F3.1_T3.2 (ssRNA)
RNA: UUUGACAACUGAUCGUUCUUUCUCUUGUACCUUAUAUAUUCUUUCUCGAUCAGUUGUCUUU

Biological target: T1, PUF4 RNA-binding domain
Test: Mg; RNA-MaP; 20 mM Na-HEPES pH 7.4, 30 mM KOAc, 0.75 mM MgCl2, 0.1% Tween-20, 5% glycerol, 0.1 mg/mL BSA, 2 mM DTT; 25 C; 0.0125-409.6 nM protein
Details: tags: N-His6-TEV cleaved; C-SNAP kept, Cy3B-labelled; label: tethered on chip by stalled RNA polymerase

| Binder | Kd [nM] |
| --- | --- |
| B1 | 6.29 |
| B2 | 148 |
| B3 | 4.34 |
| B4 | 0.155 |
| B5 | 105 |
| B6 | 66.1 |
| B7 | 23.9 |
| B8 | 4.78 |
| B9 | 0.411 |
| B10 | 1.33 |
| B11 | 2.77 |
| B12 | 0.208 |
| B13 | 2.11 |
| B14 | 2.91 |
| B15 | 0.223 |
| B16 | 16.8 |
| B17 | 4.23 |
| B18 | 31.2 |
| B19 | 6.67 |
| B20 | 5.7 |
| B21 | 118 |
| B22 | 51.6 |

| Binder | Kd [nM] |
| --- | --- |
| B23 | 6.67 |
| B24 | 22.7 |
| B25 | 8.22 |
| B26 | 7.21 |
| B27 | 6.36 |
| B28 | 1.44 |
| B29 | 0.249 |
| B30 | 108 |
| B31 | 7.68 |
| B32 | 2.21 |
| B33 | 12.7 |
| B34 | 15 |
| B35 | 1.72 |
| B36 | 3.27 |
| B37 | 8.71 |
| B38 | 1820 |
| B39 | 189 |
| B40 | > 2300 |
| B41 | 87.4 |
| B42 | 1.57 |
| B43 | 1.08 |
| B44 | 1.24 |
